These results are taken from US20140105889A1 (published 2014).

First the molecules themselves.
B1: GpH7-B3/GpL16-k0 with A327R introduced into GpH7-B3 (antibody, human IgG1)
heavy: not shown
light: DIVMTQSPLSLPVTPGEPASISCQASESLVHSNRNTYLHWYLQKPGQSPQLLIYKVSNRFSGVPDRFSGSGSGTDFTLKISRVEAEDVGVYYCSQNTHVPPTFGQGTKVEIE
notes: Anti-glypican-3 human IgG1; constant region B3 (G1d with K439E); Fc variant; also called B3 variant; copies: 2 + 2
B2: GpH7-B3/GpL16-k0 with A327S introduced into GpH7-B3 (antibody, human IgG1)
heavy: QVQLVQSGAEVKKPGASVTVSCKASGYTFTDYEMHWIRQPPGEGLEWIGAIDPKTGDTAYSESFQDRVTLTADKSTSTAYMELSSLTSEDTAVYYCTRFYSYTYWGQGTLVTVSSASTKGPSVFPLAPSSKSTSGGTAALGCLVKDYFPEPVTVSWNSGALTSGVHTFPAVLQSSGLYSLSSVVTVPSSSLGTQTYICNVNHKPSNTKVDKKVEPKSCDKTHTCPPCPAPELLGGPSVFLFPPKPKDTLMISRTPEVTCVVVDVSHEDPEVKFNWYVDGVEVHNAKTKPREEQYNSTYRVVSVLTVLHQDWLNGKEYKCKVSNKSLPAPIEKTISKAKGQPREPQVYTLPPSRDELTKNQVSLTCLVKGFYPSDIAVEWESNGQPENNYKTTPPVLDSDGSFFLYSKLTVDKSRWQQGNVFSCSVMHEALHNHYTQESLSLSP
light: DIVMTQSPLSLPVTPGEPASISCQASESLVHSNRNTYLHWYLQKPGQSPQLLIYKVSNRFSGVPDRFSGSGSGTDFTLKISRVEAEDVGVYYCSQNTHVPPTFGQGTKVEIE
notes: as for B1
B3: GpH7-B3/GpL16-k0 with A327M introduced into GpH7-B3 (antibody, human IgG1)
heavy: not shown
light: DIVMTQSPLSLPVTPGEPASISCQASESLVHSNRNTYLHWYLQKPGQSPQLLIYKVSNRFSGVPDRFSGSGSGTDFTLKISRVEAEDVGVYYCSQNTHVPPTFGQGTKVEIE
notes: as for B1
B4: GpH7-B3/GpL16-k0 with N325H introduced into GpH7-B3 (antibody, human IgG1)
heavy: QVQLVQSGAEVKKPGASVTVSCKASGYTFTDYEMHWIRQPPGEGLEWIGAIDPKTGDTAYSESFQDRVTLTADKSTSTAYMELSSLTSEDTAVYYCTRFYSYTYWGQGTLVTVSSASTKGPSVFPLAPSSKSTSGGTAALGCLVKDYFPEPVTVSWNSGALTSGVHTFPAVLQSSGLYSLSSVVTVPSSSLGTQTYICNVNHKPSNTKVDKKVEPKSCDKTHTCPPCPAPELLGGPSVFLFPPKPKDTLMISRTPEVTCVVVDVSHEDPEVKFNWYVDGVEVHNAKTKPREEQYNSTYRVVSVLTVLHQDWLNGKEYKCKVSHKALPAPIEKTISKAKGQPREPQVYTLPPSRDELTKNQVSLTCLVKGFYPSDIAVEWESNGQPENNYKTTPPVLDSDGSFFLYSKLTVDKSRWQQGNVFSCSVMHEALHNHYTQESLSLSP
light: DIVMTQSPLSLPVTPGEPASISCQASESLVHSNRNTYLHWYLQKPGQSPQLLIYKVSNRFSGVPDRFSGSGSGTDFTLKISRVEAEDVGVYYCSQNTHVPPTFGQGTKVEIE
notes: as for B1
B5: GpH7-B3/GpL16-k0 with N325F introduced into GpH7-B3 (antibody, human IgG1)
heavy: not shown
light: DIVMTQSPLSLPVTPGEPASISCQASESLVHSNRNTYLHWYLQKPGQSPQLLIYKVSNRFSGVPDRFSGSGSGTDFTLKISRVEAEDVGVYYCSQNTHVPPTFGQGTKVEIE
notes: as for B1
B6: GpH7-B3/GpL16-k0 with L328G introduced into GpH7-B3 (antibody, human IgG1)
heavy: not shown
light: DIVMTQSPLSLPVTPGEPASISCQASESLVHSNRNTYLHWYLQKPGQSPQLLIYKVSNRFSGVPDRFSGSGSGTDFTLKISRVEAEDVGVYYCSQNTHVPPTFGQGTKVEIE
notes: as for B1
B7: GpH7-B3/GpL16-k0 with A327V introduced into GpH7-B3 (antibody, human IgG1)
heavy: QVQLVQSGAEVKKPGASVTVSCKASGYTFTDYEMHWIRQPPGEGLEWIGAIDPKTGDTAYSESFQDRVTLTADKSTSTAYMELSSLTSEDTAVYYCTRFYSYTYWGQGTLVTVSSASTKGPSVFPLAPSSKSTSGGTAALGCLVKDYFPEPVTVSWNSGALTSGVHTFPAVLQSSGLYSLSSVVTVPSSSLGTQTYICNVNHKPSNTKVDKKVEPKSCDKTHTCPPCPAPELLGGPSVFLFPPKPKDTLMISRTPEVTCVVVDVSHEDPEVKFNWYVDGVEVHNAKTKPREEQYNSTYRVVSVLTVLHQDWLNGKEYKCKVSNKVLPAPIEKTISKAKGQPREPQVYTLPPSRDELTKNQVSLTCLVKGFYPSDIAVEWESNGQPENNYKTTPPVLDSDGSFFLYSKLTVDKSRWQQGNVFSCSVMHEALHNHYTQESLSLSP
light: DIVMTQSPLSLPVTPGEPASISCQASESLVHSNRNTYLHWYLQKPGQSPQLLIYKVSNRFSGVPDRFSGSGSGTDFTLKISRVEAEDVGVYYCSQNTHVPPTFGQGTKVEIE
notes: as for B1
B8: GpH7-B3/GpL16-k0 with L328K introduced into GpH7-B3 (antibody, human IgG1)
heavy: not shown
light: DIVMTQSPLSLPVTPGEPASISCQASESLVHSNRNTYLHWYLQKPGQSPQLLIYKVSNRFSGVPDRFSGSGSGTDFTLKISRVEAEDVGVYYCSQNTHVPPTFGQGTKVEIE
notes: as for B1
B9: GpH7-B3/GpL16-k0 with N325P introduced into GpH7-B3 (antibody, human IgG1)
heavy: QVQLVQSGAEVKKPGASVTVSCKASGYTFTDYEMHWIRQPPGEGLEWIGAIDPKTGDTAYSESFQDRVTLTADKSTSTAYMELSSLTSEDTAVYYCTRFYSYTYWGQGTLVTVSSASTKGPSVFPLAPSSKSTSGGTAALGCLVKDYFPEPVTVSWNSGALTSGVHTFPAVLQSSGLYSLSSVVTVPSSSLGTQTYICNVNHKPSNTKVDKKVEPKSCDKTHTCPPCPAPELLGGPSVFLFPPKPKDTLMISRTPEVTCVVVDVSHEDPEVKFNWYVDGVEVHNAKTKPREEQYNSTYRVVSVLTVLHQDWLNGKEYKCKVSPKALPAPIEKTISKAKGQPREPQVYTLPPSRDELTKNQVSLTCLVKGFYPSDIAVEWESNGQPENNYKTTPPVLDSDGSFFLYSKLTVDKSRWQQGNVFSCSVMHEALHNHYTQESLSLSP
light: DIVMTQSPLSLPVTPGEPASISCQASESLVHSNRNTYLHWYLQKPGQSPQLLIYKVSNRFSGVPDRFSGSGSGTDFTLKISRVEAEDVGVYYCSQNTHVPPTFGQGTKVEIE
notes: as for B1
B10: GpH7-B3/GpL16-k0 with N325G introduced into GpH7-B3 (antibody, human IgG1)
heavy: not shown
light: DIVMTQSPLSLPVTPGEPASISCQASESLVHSNRNTYLHWYLQKPGQSPQLLIYKVSNRFSGVPDRFSGSGSGTDFTLKISRVEAEDVGVYYCSQNTHVPPTFGQGTKVEIE
notes: as for B1
B11: GpH7-B3/GpL16-k0 with A327Q introduced into GpH7-B3 (antibody, human IgG1)
heavy: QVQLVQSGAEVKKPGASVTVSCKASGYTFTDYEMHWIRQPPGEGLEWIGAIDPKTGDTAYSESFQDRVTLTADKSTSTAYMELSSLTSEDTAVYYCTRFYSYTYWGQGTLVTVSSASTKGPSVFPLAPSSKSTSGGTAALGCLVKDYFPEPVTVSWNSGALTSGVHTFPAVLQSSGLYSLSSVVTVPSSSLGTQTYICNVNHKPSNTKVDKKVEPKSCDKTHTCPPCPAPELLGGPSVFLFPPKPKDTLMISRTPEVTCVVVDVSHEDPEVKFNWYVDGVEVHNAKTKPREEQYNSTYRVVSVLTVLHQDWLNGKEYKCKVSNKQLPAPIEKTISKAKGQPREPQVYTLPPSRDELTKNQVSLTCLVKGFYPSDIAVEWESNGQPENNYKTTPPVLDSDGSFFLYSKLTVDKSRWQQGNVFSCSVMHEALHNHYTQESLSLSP
light: DIVMTQSPLSLPVTPGEPASISCQASESLVHSNRNTYLHWYLQKPGQSPQLLIYKVSNRFSGVPDRFSGSGSGTDFTLKISRVEAEDVGVYYCSQNTHVPPTFGQGTKVEIE
notes: as for B1
B12: GpH7-B3/GpL16-k0 with N325T introduced into GpH7-B3 (antibody, human IgG1)
heavy: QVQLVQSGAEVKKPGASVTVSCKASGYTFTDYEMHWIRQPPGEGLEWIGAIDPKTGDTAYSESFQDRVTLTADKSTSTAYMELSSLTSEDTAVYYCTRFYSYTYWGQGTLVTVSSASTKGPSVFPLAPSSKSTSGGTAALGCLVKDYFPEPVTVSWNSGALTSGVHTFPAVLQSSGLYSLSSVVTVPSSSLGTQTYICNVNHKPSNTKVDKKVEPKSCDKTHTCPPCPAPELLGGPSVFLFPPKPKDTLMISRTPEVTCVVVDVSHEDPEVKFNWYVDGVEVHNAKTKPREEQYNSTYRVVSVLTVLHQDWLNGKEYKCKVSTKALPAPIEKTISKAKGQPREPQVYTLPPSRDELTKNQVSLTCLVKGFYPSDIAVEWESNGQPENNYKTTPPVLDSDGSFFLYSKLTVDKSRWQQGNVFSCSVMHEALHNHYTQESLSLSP
light: DIVMTQSPLSLPVTPGEPASISCQASESLVHSNRNTYLHWYLQKPGQSPQLLIYKVSNRFSGVPDRFSGSGSGTDFTLKISRVEAEDVGVYYCSQNTHVPPTFGQGTKVEIE
notes: as for B1
B13: GpH7-B3/GpL16-k0 with P329F introduced into GpH7-B3 (antibody, human IgG1)
heavy: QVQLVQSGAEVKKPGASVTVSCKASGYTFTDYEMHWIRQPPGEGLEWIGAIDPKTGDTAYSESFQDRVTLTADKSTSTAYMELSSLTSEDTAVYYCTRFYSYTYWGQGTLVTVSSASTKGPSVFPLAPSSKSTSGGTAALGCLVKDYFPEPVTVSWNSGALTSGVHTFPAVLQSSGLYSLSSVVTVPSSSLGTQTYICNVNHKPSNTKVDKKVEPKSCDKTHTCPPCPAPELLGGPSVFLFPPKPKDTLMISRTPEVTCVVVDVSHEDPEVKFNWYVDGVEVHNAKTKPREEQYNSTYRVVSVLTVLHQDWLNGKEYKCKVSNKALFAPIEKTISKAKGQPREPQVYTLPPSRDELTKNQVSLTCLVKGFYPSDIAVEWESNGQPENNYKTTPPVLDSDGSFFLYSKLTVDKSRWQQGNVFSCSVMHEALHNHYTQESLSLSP
light: DIVMTQSPLSLPVTPGEPASISCQASESLVHSNRNTYLHWYLQKPGQSPQLLIYKVSNRFSGVPDRFSGSGSGTDFTLKISRVEAEDVGVYYCSQNTHVPPTFGQGTKVEIE
notes: as for B1
B14: GpH7-B3/GpL16-k0 with L328H introduced into GpH7-B3 (antibody, human IgG1)
heavy: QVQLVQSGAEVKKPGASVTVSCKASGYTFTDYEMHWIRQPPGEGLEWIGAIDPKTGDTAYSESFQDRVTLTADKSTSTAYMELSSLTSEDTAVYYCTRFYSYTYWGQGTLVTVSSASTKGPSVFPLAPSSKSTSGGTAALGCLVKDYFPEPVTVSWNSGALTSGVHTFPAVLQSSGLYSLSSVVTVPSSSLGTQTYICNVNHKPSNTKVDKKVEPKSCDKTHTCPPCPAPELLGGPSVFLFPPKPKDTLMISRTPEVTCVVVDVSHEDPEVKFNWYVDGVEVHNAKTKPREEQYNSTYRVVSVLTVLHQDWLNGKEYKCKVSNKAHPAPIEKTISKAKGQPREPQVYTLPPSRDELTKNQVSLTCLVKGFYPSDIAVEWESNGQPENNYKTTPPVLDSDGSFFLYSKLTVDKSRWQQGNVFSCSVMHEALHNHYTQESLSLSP
light: DIVMTQSPLSLPVTPGEPASISCQASESLVHSNRNTYLHWYLQKPGQSPQLLIYKVSNRFSGVPDRFSGSGSGTDFTLKISRVEAEDVGVYYCSQNTHVPPTFGQGTKVEIE
notes: as for B1
B15: GpH7-B3/GpL16-k0 with A327K introduced into GpH7-B3 (antibody, human IgG1)
heavy: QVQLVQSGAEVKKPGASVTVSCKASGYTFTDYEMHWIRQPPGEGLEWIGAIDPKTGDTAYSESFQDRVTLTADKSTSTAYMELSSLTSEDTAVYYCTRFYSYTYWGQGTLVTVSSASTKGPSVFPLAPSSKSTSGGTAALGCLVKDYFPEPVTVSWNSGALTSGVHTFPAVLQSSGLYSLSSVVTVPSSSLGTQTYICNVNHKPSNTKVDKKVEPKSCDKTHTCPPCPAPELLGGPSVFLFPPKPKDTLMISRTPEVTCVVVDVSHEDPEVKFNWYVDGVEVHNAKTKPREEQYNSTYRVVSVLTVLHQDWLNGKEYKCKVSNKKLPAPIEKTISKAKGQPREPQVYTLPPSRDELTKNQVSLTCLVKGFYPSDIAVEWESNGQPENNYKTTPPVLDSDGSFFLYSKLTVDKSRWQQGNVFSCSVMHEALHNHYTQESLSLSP
light: DIVMTQSPLSLPVTPGEPASISCQASESLVHSNRNTYLHWYLQKPGQSPQLLIYKVSNRFSGVPDRFSGSGSGTDFTLKISRVEAEDVGVYYCSQNTHVPPTFGQGTKVEIE
notes: as for B1
B16: GpH7-B3/GpL16-k0 with A327W introduced into GpH7-B3 (antibody, human IgG1)
heavy: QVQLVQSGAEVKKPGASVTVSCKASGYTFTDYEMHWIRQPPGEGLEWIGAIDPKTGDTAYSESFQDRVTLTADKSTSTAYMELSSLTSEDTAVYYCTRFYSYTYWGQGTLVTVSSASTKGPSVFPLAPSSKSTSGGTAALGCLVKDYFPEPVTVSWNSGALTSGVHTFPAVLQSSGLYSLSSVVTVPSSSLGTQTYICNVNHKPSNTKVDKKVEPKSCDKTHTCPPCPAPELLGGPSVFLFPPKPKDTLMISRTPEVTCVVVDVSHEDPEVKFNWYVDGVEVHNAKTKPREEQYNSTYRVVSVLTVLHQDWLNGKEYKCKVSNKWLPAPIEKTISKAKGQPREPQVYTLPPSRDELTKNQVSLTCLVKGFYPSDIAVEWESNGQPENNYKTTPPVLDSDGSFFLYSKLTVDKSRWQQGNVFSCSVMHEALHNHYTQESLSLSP
light: DIVMTQSPLSLPVTPGEPASISCQASESLVHSNRNTYLHWYLQKPGQSPQLLIYKVSNRFSGVPDRFSGSGSGTDFTLKISRVEAEDVGVYYCSQNTHVPPTFGQGTKVEIE
notes: as for B1

T1 sequence (P08637 other isoform, or with tags, fused parts or gaps limits assumed): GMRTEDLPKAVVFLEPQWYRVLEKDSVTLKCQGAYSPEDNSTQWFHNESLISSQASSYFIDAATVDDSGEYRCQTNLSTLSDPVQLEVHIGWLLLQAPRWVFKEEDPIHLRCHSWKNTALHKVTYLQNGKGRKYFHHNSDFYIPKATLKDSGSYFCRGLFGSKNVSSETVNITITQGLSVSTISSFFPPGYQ

The experiment addresses T1, human FcγRIIIa(F) (human, UniProt P08637 17-208, limits assumed).
T1 construct: also called FcgRIIIaF; FcγRIIIa allotype F158
Description: SPR (Biacore), captured antibody, FcγR analyte; bound amount relative to GpH7-B3/GpL16-k0 x100.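 Note: receptor response divided by the antibody amount captured on the chip before comparison with the reference antibody, measured at 25 °C in HBS-EP+ running buffer.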 Background: SPR reads the build-up and loss of mass on a sensor chip optically.
Description: Interaction between each modified antibody and Fcγ receptor prepared in the manner described above was analyzed using the Biacore T100 (GE Healthcare), Biacore T200 (GE Healthcare), Biacore A100 or Biacore 4000. HBS-EP+ (GE Healthcare) was used for the running buffer, and measurements were carried out at 25° C. The chips used were chips in which antigen peptides, Protein A (Thermo Scientific), Protein A/G (Thermo Scientific) or Protein L (ACTIGEN or BioVision) were immobilized on the Series S Sensor Chip CM5 (GE Healthcare) or Series S Sensor Chip CM4 (GE Healthcare) by amine coupling, or chips in which preliminarily biotinylated antigen peptides were allowed to interact and then immobilized on the Series S Sensor Chip SA (certified) (GE Healthcare). The target antibodies were captured on these sensor chips, Fcγ receptor diluted with the running buffer was allowed to interact, followed by measurement of the amount of bound antibody. The amounts bound were compared between antibodies. However, since the amount of Fcγ receptor bound depends on the amount of captured antibody, the values used for comparison were first corrected by dividing the amount of Fcγ receptor bound by the captured amount of each antibody. Through reaction with 10 mM glycine-HCl at pH 1.5, the sensor chips were regenerated by washing off antibody captured on the sensor chips and used repeatedly.
Binding strength was evaluated according to the following method based on the results of analyzing the interaction with each FcγR. […] That value was then further multiplied by 100, and the resulting value was used as an indicator of relative binding activity to each FcγR.
Turning to B1, the relative binding activity is 1 % of GpH7-B3/GpL16-k0.
Consider B2, for which the relative binding activity is 42 % of GpH7-B3/GpL16-k0.
For B3 the value was 24 % of GpH7-B3/GpL16-k0.
Regarding B4, the relative binding activity is 37 % of GpH7-B3/GpL16-k0.
Turning to B5, the relative binding activity was -1 % of GpH7-B3/GpL16-k0.
In the case of B6, the relative binding activity is 8 % of GpH7-B3/GpL16-k0.
Regarding B7, the relative binding activity was 18 % of GpH7-B3/GpL16-k0.
For the molecule B8, the relative binding activity was 0 % of GpH7-B3/GpL16-k0.
Take B9: the relative binding activity is 0 % of GpH7-B3/GpL16-k0.
The same measure for B10: 1 % of GpH7-B3/GpL16-k0; for B11: 18 % of GpH7-B3/GpL16-k0.
On to B12, for which the relative binding activity is 10 % of GpH7-B3/GpL16-k0.
In the case of B13, the relative binding activity is 0 % of GpH7-B3/GpL16-k0.
B14: the relative binding activity was 13 % of GpH7-B3/GpL16-k0.
As for B15, the relative binding activity is 5 % of GpH7-B3/GpL16-k0.
In the case of B16, the relative binding activity is 17 % of GpH7-B3/GpL16-k0.
